Test results published in patent WO2007014744A2 (dated 2007).

How the values were obtained:
[1] = biological target: the molecule itself; assay: BS3 chemical crosslinking, gel filtration and native PAGE; multimers up to hexamers, native mass about 500 kDa
[2] = biological target: T1, fibroblast activation protein (FAP) (UniProt Q12884 1-760, limits assumed); assay: flow cytometry on HT1080FAP against HT1080 cells, 5 ug/ml fusion protein, anti-Flag M2 detection
T1 construct: whole, on cells; also called FAP antigen; FAP on HT1080FAP cells
T1 sequence (looked up): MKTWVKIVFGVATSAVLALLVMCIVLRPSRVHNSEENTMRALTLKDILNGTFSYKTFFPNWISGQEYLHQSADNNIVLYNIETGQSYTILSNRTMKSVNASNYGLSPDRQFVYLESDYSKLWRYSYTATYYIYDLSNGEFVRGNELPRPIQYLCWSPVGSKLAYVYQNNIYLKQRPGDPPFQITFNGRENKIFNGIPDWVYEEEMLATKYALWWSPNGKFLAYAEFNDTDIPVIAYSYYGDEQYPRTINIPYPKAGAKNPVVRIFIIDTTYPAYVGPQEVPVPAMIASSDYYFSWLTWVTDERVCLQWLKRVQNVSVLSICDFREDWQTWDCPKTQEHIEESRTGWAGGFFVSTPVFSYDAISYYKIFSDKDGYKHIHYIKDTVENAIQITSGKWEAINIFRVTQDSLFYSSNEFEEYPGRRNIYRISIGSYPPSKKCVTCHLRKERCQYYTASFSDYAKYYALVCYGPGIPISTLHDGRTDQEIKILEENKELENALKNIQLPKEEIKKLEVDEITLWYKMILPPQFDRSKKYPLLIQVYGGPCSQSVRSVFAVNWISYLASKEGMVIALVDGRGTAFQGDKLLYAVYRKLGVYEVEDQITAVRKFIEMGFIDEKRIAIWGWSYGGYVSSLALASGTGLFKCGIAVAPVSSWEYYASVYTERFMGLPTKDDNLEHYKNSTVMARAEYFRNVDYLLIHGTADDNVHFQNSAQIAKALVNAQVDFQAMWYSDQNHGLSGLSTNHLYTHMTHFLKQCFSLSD

binding result [2]: binds
B1: CD95-TNC-PL-SC40-CD95L prodrug (other)
chain: LEVARLSSKSVNAQVTDINSKGLELRKTVTTVETQNLEGLHHDGQFCHKPCPPGERKARDCTVNGDEPDCVPCQEGKEYTDKAHFSSKCRRCRLCDEGHGLEVEINCTRTQNTKCRCKPNFFCNSTVCEHCDPCTKCEHGIIKECTLTSNTKCKEEGSRSNPRDIACGCAAAPDIKDLLSRLEELEGLVSSLREQGTGGGSGRPPRDHPVGLLARGGGHPVGLLARGGGHPVGLLARTGLEQVQLVQSGGGMVEPGGSLRLSCAASGFTFSNAWMSWVRQAPGKGLEWVGRIKSKAGGGTAEYAAPVKGRFTISRDDSQNTLYLQMNSLKTDDTAVYYCTTHVYGAPRNWGQGSLVTVSSASTKGPKLEEGEFSEARVQSVLTQPPSVSAAPGQKVTISCSGSSSNIGNNYVSWYVQLPGTAPKLLIYDNNKRFSGVPDRFSGSKSGTSATLGITGLQTGDEADYYCGAWDGSLREAVFGGGTKVTVLGAAAVDDYKDDDDKEFTREKKELRKVAHLTGKSNSRSMPLEWEDTYGIVLLSGVKYKKGGLVINETGLYFVYSKVYFRGQSCNNLPLSHKVYMRNSKYPQDLVMMEGKMMSYCTTGQMWARSSYLGAVFNLTSADHLYVNVSELSLVNFEESQTFFGLYKL
notes: Made in HEK293 cells and purified on anti-Flag M2 agarose; Forms covalently associated trimers through the tenascin domain; Crosslinking, gel filtration and native PAGE (about 500 kDa) point to hexamers, i.e. dimers of trimers; also called SC40-CD95L-PD; CD95-TNC-PL-SC40-F-CD95L
binding result [1]: binds
